Measured values reported in article PMC4891050, “A novel small-molecule compound targeting CD147 inhibits the motility and invasion of hepatocellular carcinoma cells” (Oncotarget, 2016).

T1: wild-type CD147 extracellular portion (residues 22-205) tagged with 6 x His, P35613
T1 chain: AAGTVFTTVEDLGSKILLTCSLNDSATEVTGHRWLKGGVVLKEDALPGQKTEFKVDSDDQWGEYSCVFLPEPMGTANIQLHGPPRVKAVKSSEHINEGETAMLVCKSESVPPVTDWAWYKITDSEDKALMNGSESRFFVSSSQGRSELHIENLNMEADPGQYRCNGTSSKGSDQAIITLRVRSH


What was measured:
[1] = target: T1, wild-type CD147 extracellular portion …; experiment: native gel or EMSA; non-denaturing SDS-PAGE: 5 ug purified protein with DMSO or AC-73 (0, 0.1, 0.25 or 0.5 uM), 5x Laemmli sample buffer lacking SDS, 10% SDS-PAGE without boiling, immunoblot with anti-His6; monomer and dimer bands; conditions: remark: other sources report otherwise
[2] = target: the molecule itself; experiment: as above

stoichiometry N [1]	Binder	binding result [2]
2	wild-type CD147 extracellular portion (residues 22-205) tagged with 6 x His, P35613-2 22-205 (domain or fragment) AAGTVFTTVEDLGSKILLTCSLNDSATEVTGHRWLKGGVVLKEDALPGQKTEFKVDSDDQWGEYSCVFLPEPMGTANIQLHGPPRVKAVKSSEHINEGETAMLVCKSESVPPVTDWAWYKITDSEDKALMNGSESRFFVSSSQGRSELHIENLNMEADPGQYRCNGTSSKGSDQAIITLRVRSH	
	CD147 mutant E73A, extracellular portion tagged with 6 x His (domain or fragment, UniProt P35613-2 22-205, looked up, CD147 (EMMPRIN, HAb18G/CD147), extracellular portion, residues 22-205 as for CD147wt, with E73A; also called CD147mt; CD147mts; source: prokaryotic expression system, purified) AAGTVFTTVEDLGSKILLTCSLNDSATEVTGHRWLKGGVVLKEDALPGQKTAFKVDSDDQWGEYSCVFLPEPMGTANIQLHGPPRVKAVKSSEHINEGETAMLVCKSESVPPVTDWAWYKITDSEDKALMNGSESRFFVSSSQGRSELHIENLNMEADPGQYRCNGTSSKGSDQAIITLRVRSH	binds
	CD147 mutant E64A, extracellular portion tagged with 6 x His (domain or fragment, UniProt P35613-2 22-205, looked up, CD147 (EMMPRIN, HAb18G/CD147), extracellular portion, residues 22-205 as for CD147wt, with E64A; also called CD147mt; CD147mts; source: prokaryotic expression system, purified) AAGTVFTTVEDLGSKILLTCSLNDSATEVTGHRWLKGGVVLKADALPGQKTEFKVDSDDQWGEYSCVFLPEPMGTANIQLHGPPRVKAVKSSEHINEGETAMLVCKSESVPPVTDWAWYKITDSEDKALMNGSESRFFVSSSQGRSELHIENLNMEADPGQYRCNGTSSKGSDQAIITLRVRSH	binds
